Assay results reported in the supplement of paper PMC9170038.

System: MS2 coat protein
Experiment: apparent KD of MS2 coat protein; designed switch direction (-1 OFF switch, 1 ON switch): 1; higher = weaker reporter binding
In short: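 Designed RNA switches sharing common flanks were transcribed on Illumina chips by stalled E. coli RNA polymerase. They were titrated with SNAP-549-labelled MS2 coat protein, from 0.7 or 1.5 nM doubling to 3 µM, in Tris-HCl pH 7.5 buffer with KCl, MgCl2, BSA, DTT, tRNA and Tween-20. Titrations ran without input, with 200 uM small-molecule ligand, or with an oligonucleotide input. The apparent KD of each design is the median over its clusters, after curve-fitting of normalised cluster fluorescence.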

[1] = input ligand: microRNA oligo, concentration not stated
[2] = Eterna round: R95, input ligand: FMN 200 uM
[3] = Eterna round: R95, input ligand: microRNA oligo, concentration not stated
[4] = Eterna round: R95, input ligand: none

UGGCUCAGAGCAGGAUAUAUGUGGUCACAUGAGGAUCACCCAUGUCUCGAGCUUCGGCUCGAGGCAUAGAAGGGCUCUGAGCCA [SSNG2/5-B2] (Eterna round: R96, puzzle: Same State NG 2)
apparent KD of MS2 coat protein (input ligand: FMN 200 uM): 0.55 µM | apparent KD of MS2 coat protein [1]: 0.048 µM | apparent KD of MS2 coat protein (input ligand: none): 0.0581 µM

AUAACCCGUGCUAAGGAUAUGCGUACUCCUACAUGAGGAUCACCCAUGUCCCGCCGAAAAGGAAGGCAGAAGGUAGCACGGGCCG [Lasoleri] (puzzle: Same State 2)
apparent KD of MS2 coat protein [2]: 0.0457 µM | apparent KD of MS2 coat protein [3]: 0.0849 µM | apparent KD of MS2 coat protein [4]: 0.126 µM

UUUAGUUGCGGGCAGGAUAUGUAUUAAAAUACAUGAGGAUCACCCAUGUGAGGCCGAAAAGGCCUACAGAAGGGCCAAUCGCGAC [Laonerce - 22] (puzzle: Same State 2)
apparent KD of MS2 coat protein [2]: 0.0197 µM | apparent KD of MS2 coat protein [3]: 0.0494 µM | apparent KD of MS2 coat protein [4]: 0.063 µM

ACAUGAGACCAAGGAUAUCUUGUACCUACAUGUGACAUGAGGAUCACCCAUGUGGUAAGUAUGAGGGAGAAGGUGGAGAUAUGU [Equivalence 25 - Jieux - Same State NG 2] (Eterna round: R96, puzzle: Same State NG 2)
apparent KD of MS2 coat protein (input ligand: FMN 200 uM): 0.0262 µM | apparent KD of MS2 coat protein [1]: 0.0188 µM | apparent KD of MS2 coat protein (input ligand: none): 0.0367 µM

GAAAAACAUGAGGAUCACCCAUGUGAGAAUAUGGGAGGAUAUUCAAAGACGAAAGUCAAAGAAGAAGGCCUAAAAG [Mat - Same State 1 - Eli mod - 37] (Eterna round: R96, puzzle: Same State 1)
apparent KD of MS2 coat protein (input ligand: FMN 200 uM): 0.0334 µM | apparent KD of MS2 coat protein [1]: 0.143 µM | apparent KD of MS2 coat protein (input ligand: none): 0.211 µM

CUUUUUAAUGCAGGAUAUGAUCAACAUGAGGAUCACCCAUGUGGUGUUGUGAGUAAGGAGAGUGAUCAGAAGGGCAUCUCCUCA [SS-NG2-LRO06] (Eterna round: R96, puzzle: Same State NG 2)
apparent KD of MS2 coat protein (input ligand: FMN 200 uM): 0.186 µM | apparent KD of MS2 coat protein [1]: 0.0736 µM | apparent KD of MS2 coat protein (input ligand: none): 0.0836 µM

AGUCCAGCCUGAGCUGGACAAAAGCAUGUACAUGAGGAUCACCCAUGUUCAUGUACAAGCUUUUUGCUCGUCUUACC [salish99_208a_r3_079] (puzzle: Sensor for hsa-mir-208a)
apparent KD of MS2 coat protein [2]: 0.669 µM | apparent KD of MS2 coat protein [3]: 0.0158 µM | apparent KD of MS2 coat protein [4]: 0.722 µM

AAGUGGUCCCAAGGAUAUGUCCAAAAGAAGGGCUGAGACAUGAGGAUCACCCAUGUCUCGGCGGUACAGAAGGUGGAGACAGGU [Solaena] (Eterna round: R96, puzzle: Same State NG 2)
apparent KD of MS2 coat protein (input ligand: FMN 200 uM): 0.0105 µM | apparent KD of MS2 coat protein [1]: 0.01 µM | apparent KD of MS2 coat protein (input ligand: none): 0.014 µM

GGAGCCAAGGCAGGAUAUUCAUAUUAAUAAACAUGAGGAUCACCCAUGUAGGCCAGAAGGCCUUGGGAGAAGGGCCAUGGCUCG [Xeonanis - 13 mod5] (Eterna round: R96, puzzle: Same State NG 2)
apparent KD of MS2 coat protein (input ligand: FMN 200 uM): 0.0213 µM | apparent KD of MS2 coat protein [1]: 0.12 µM | apparent KD of MS2 coat protein (input ligand: none): 0.196 µM

AAUUCACGAGCACAGGAUAUGCUUGCCAACACAUGAGGAUCACCCAUGUCGGGCUACUAAUAAGAGCAGAAGGGUGACUCAUGAU [Esticece] (puzzle: Same State 2)
apparent KD of MS2 coat protein [2]: 0.0366 µM | apparent KD of MS2 coat protein [3]: 0.342 µM | apparent KD of MS2 coat protein [4]: 0.0582 µM

GUGGUCAGACAUGAGGAUCACCCAUGUGGAAUAAAUAACACACAGGAUAUCAAAUAUAAAAUAUAUGAGAAGGGUGGAUUGGUG (Eterna round: R96, puzzle: Same State NG 3)
apparent KD of MS2 coat protein [1]: 0.3 µM

AUAAAACAUGAGGAUCACCCAUGUAGACGGAGAGCCGUCACAUAGGAUAUAGCCAGCGGUGUUGGCUAGAAGGGUGGUAGAAAA [Lavezaer] (Eterna round: R96, puzzle: Same State NG 3)
apparent KD of MS2 coat protein (input ligand: FMN 200 uM): 0.0598 µM | apparent KD of MS2 coat protein [1]: 0.0781 µM | apparent KD of MS2 coat protein (input ligand: none): 0.13 µM

AGAGAACAUGAGGAUCACCCAUGUAAGAGAAGUGUAGGAUAUGUGAGGAGCAGAGGAGGAACAGAAGGACAUGGAG [JR_SS!_Sub072] (puzzle: Same State 1)
apparent KD of MS2 coat protein [2]: 0.0346 µM | apparent KD of MS2 coat protein [3]: 0.0353 µM | apparent KD of MS2 coat protein [4]: 0.0538 µM

GAAAGCAUGGGAGGAUAUAGCCUCUAUGGAGGGCUAGAAGGCCCUGGCCACAUGAGGAUCACCCAUGUGAAAUAAAUAGAAGAA [MOD Raarceza] (Eterna round: R96, puzzle: Same State NG 1)
apparent KD of MS2 coat protein (input ligand: FMN 200 uM): 0.453 µM | apparent KD of MS2 coat protein [1]: 0.00274 µM | apparent KD of MS2 coat protein (input ligand: none): 0.188 µM

GGUCCAGCCUGAGCUGGACAAAAGCAUGUACAUGAGGAUCACCCAUGUCAUGUACAAGCUUUUUGCUCGUCUAAAUG [Mat - hsa-mir-208a - 93] (puzzle: Sensor for hsa-mir-208a)
apparent KD of MS2 coat protein [2]: 0.802 µM | apparent KD of MS2 coat protein [3]: 0.0217 µM | apparent KD of MS2 coat protein [4]: 0.758 µM

AGUCCAGCCUGAGCUGGACAAAAGCAUGUACAUGAGGAUCACCCAUGUCAUGUACAAGCUUUUUGCUCGUUUUAAAA [Zipper 46 - 13] (puzzle: Sensor for hsa-mir-208a)
apparent KD of MS2 coat protein [2]: 0.477 µM | apparent KD of MS2 coat protein [3]: 0.0129 µM | apparent KD of MS2 coat protein [4]: 1.01 µM

GGACGUCAUCUCACUGAUUAAACAUGAGGAUCACCCAUGUCACAGGAUAUGGAUCCGAUUAGGAUCCAGAAGGGUGUGACGUCC [Fiskers NG3ss - 43] (Eterna round: R96, puzzle: Same State NG 3)
apparent KD of MS2 coat protein (input ligand: FMN 200 uM): 0.0214 µM | apparent KD of MS2 coat protein [1]: 0.0193 µM | apparent KD of MS2 coat protein (input ligand: none): 0.0242 µM

AUAGUUAGCGAAGGAUAUGGGAAAGGAAGUGUACCAGAAGGUCGGCUACUGGGCUUACAUGAGGAUCACCCAUGUCCCGGUAGC [PowerStrip SSNG 1.13] (Eterna round: R96, puzzle: Same State NG 1)
apparent KD of MS2 coat protein (input ligand: FMN 200 uM): 0.0101 µM | apparent KD of MS2 coat protein [1]: 0.00915 µM | apparent KD of MS2 coat protein (input ligand: none): 0.0122 µM

GAUUCACAUGAGGAUCACCCAUGUCGUAAUAUGGGAGGAUAUACGUGGACCGUAGUCCGCGUAGAAGGCCUAAUUG [Mat - Same State 1 - Mod of JL - D25] (puzzle: Same State 1)
apparent KD of MS2 coat protein [3]: 0.148 µM

GCACUGGCGGUAGGAUAUCUAGGAUAUGGGAAAGACUAAGUCUGUAGGUCACCUAACCCAGAAGGAGAGAAGGACACCGAAAGG [pwkr ssNG2 2FMN + F9.20] (Eterna round: R96, puzzle: Same State NG 2)
apparent KD of MS2 coat protein (input ligand: FMN 200 uM): 0.115 µM | apparent KD of MS2 coat protein [1]: 0.0165 µM | apparent KD of MS2 coat protein (input ligand: none): 0.0129 µM

AAGACAAGCUUUAUGUUCUUCCUAUUCCAACAUGAGGAUCACCCAUGUAGUCUGACGAUUGUGAGUGUAGUUGAGAU [JR_SHM208A_Sub027] (puzzle: Sensor for hsa-mir-208a)
apparent KD of MS2 coat protein [2]: 0.0583 µM | apparent KD of MS2 coat protein [3]: 0.0769 µM | apparent KD of MS2 coat protein [4]: 0.0765 µM

CUCAAACAUGAGGAUCACCCAUGUGUUGUCGUGGGAGGAUAUCCCAGUUCGGUGGCGUCGGGAGAAGGCCUAUGUC (Eterna round: R96, puzzle: Same State 1)
apparent KD of MS2 coat protein (input ligand: FMN 200 uM): 0.0678 µM | apparent KD of MS2 coat protein [1]: 0.106 µM | apparent KD of MS2 coat protein (input ligand: none): 0.129 µM

AUAUAACAUGAGGAUCACCCAUGUCUCUAAAGUCGAGGAUAUGGGCAGGUUAUAUCCGAACCAGAAGGCGAAUUAU [SS1 Teenbexe 5] (puzzle: Same State 1)
apparent KD of MS2 coat protein [2]: 0.0563 µM | apparent KD of MS2 coat protein [3]: 0.239 µM | apparent KD of MS2 coat protein [4]: 0.322 µM

UUAAUGAUGAUAGGAUAUACAUGAGGAAUCCUCGUAGAAGGAUCAUGACAUGAGGAUCACCCAUGUAACGCUCCGUAGAGCGUA [JL SSNG1 1.16] (Eterna round: R96, puzzle: Same State NG 1)
apparent KD of MS2 coat protein (input ligand: FMN 200 uM): 0.22 µM | apparent KD of MS2 coat protein [1]: 0.094 µM | apparent KD of MS2 coat protein (input ligand: none): 0.25 µM

AAAGUGGGCUUAUUUGGAUUCUCGUCUGGACAUGAGGAUCACCCAUGUAGGCGCUUGGUCUGAGACUAAGCAGCCGA [Didiinso] (Eterna round: R96, puzzle: Sensor for hsa-mir-208a)
apparent KD of MS2 coat protein (input ligand: FMN 200 uM): 0.113 µM | apparent KD of MS2 coat protein [1]: 0.0285 µM | apparent KD of MS2 coat protein (input ligand: none): 0.0753 µM

CAGCUCGUGUGAGGAUAUGCCGCCGUUUCGGCUGCAGAAGGUGCUACGUUACAUGAGGAUCACCCAUGUCUCUGUUGUUUCGUG [salish99_SSNG1_r04_963] (Eterna round: R96, puzzle: Same State NG 1)
apparent KD of MS2 coat protein (input ligand: FMN 200 uM): 0.0208 µM | apparent KD of MS2 coat protein [1]: 0.0179 µM | apparent KD of MS2 coat protein (input ligand: none): 0.0232 µM

AGUCCAGCCUGAGCUGGACAAAAGCAUGUACAUGAGGAUCACCCAUGUUCAUGUACAAGCUUUUUGCUCGUCUUGCA [salish99_208a_r3_104x] (puzzle: Sensor for hsa-mir-208a)
apparent KD of MS2 coat protein [2]: 0.45 µM | apparent KD of MS2 coat protein [3]: 0.015 µM | apparent KD of MS2 coat protein [4]: 0.415 µM

AGCUAUUAAUCAGGAUAUAGUGACAUGAGGAUCACCCAUGUAUUGAUGAUGAAAUGUGGUCGCCGCUAGAAGGGAUUACUAACA [SameState NG2 #45] (Eterna round: R96, puzzle: Same State NG 2)
apparent KD of MS2 coat protein (input ligand: FMN 200 uM): 0.0751 µM | apparent KD of MS2 coat protein [1]: 0.0277 µM | apparent KD of MS2 coat protein (input ligand: none): 0.034 µM

GGAAAGAGGUAAGGAUAUGCAUGGCUGGGACAUGAGGAUCACCCAUGUUGGAGAAGAAAUCUAGGGUAGAAGGUACAAGGAAGG [AK SSNG2-V2-10] (Eterna round: R96, puzzle: Same State NG 2)
apparent KD of MS2 coat protein (input ligand: FMN 200 uM): 0.24 µM | apparent KD of MS2 coat protein [1]: 0.22 µM | apparent KD of MS2 coat protein (input ligand: none): 0.203 µM

AUUAUUUAUGCAGGAUAUGAUUAACAUGAGGAUCACCCAUGUGGUGUUGUGAGUAAGGAGAGUGAUCAGAAGGGCAUUUCUUUU [JMF's solution 49] (Eterna round: R96, puzzle: Same State NG 2)
apparent KD of MS2 coat protein (input ligand: FMN 200 uM): 0.596 µM | apparent KD of MS2 coat protein [1]: 0.315 µM | apparent KD of MS2 coat protein (input ligand: none): 0.492 µM

GUAUAACAUGAGGAUCACCCAUGUCAUCUAAGUCGAGGAUAUGGGAAUUAAUUAAUUAAACCAGAAGGCGAAAAUG [Mat - Same State 1 - D93] (puzzle: Same State 1)
apparent KD of MS2 coat protein [2]: 0.0482 µM | apparent KD of MS2 coat protein [3]: 0.291 µM | apparent KD of MS2 coat protein [4]: 0.3 µM
